From patent US20080299638A1 (priority 2004, published 2008)
Where “and” joins values, the source holds several entries; their conditions need not be identical. Equal values may be shown once.

How the values were obtained:
[1] = tested on: HBeAg; assay: Suppression of HBeAg secretion in 2.2.15 cells (radioimmunoassay, cpm); format: cell-based, hepatitis B virus
Procedure: (§1) Grow 200000 cells/ml 2.2.15 cell on 24-well plate, 1 ml per well, incubate for 24 hours under 5% CO2 at 37° C. […] 4 wells per concentration, incubate under 5% CO2 at 37° C., change drug solution every 4 days with the same concentration, retrieve culture medium at day 8, preserve at −20° C. Repeat experiment for 2 batches, test for HBsAg and HBeAg separately. Check cpm value for each wells using γ-counter.
(§2) Calculating drug effectiveness: calculate the mean and standard deviation of cpm from the cell control group and groups with different drug concentration, P/N value and percent suppression, IC50 and SI. • (1)
(§3) [formula] • (2) Calculate IC50 for drug suppression of antigen:
(§4) [formula] • (4) Calculate the cpm differences between HBsAg and HBeAg in different dilutions and control groups by t-test.

[2] = tested on: HBV-DNA in supernatant of 2.2.15 cell culture; assay: HBV-DNA dot blot in supernatant of 2.2.15 cell culture; format: cell-based, hepatitis B virus
Procedure: Extraction of HBV-DNA from 2.2.15 cells supernatant: Grow 200000 cells/ml 2.2.15 cell on 24-well plate, 1 ml per well, add drugs after 24 hours incubation, change drug solution every 4 days with the same concentration, collect supernatant from cell culture after 8 days of incubation counted from the day drugs added into the culture, precipitate with polyethylene glycol, digest with proteinase K, extract with phenol:chloroform:isopentanol, nucleic acid precipitation by absolute ethanol and so on procedures, vacuum dry, re-dissolve in TE buffer as sample.
Dot blot: place dots: take 20 μl sample (contains 25 μg DNA), denature, neutralize, serial dilute 20×SSC buffer to 1:8 dilution on nitrocellulose membrane, oven dry, pre-hybridize, hybridize, wash membrane, radioactive self exposure and so on procedures. Develop X ray film with conventional method. Scan developed film with scanner, measure density with gel-pro software, calculate suppression rate and IC50.

[3] = tested on: 2.2.15 cells; assay: Arginase toxicity to cells (CPE method, Reed-Muench); format: cell-based, human; settings: 8 days drug addition
Procedure: Divide experiment into control group and test groups with different drug concentration. Digest cells, dilute to 200,000 cells/ml, transfer to culture plate, 100 μl per well for 96-well plate, incubate for 24 hours under 5% CO2 at 37° C., ready for experiment when cells grown into monolayer. […] Observe cytopathological changes, 8 days or 4 days under microscope, totally destroyed is 4; 75% destroyed is 3; 50% destroyed is 2, 25% destroyed is 1; no changes is 0. Calculate TC50 and TC0 according to Reed-Muench Method:
A=log>50% drug concentration; B=log<50% drug concentration; C=log times of dilution
Starting from 40 IU/ml and subsequently 20, 10, 5, 2.5 IU/ml, change drug solution every 4 days until 8 days, observe cytopathological changes under microscope, and check for CPE with microscope.

[4] = tested on: HBsAg; assay: Suppression of HBsAg secretion in 2.2.15 cells (radioimmunoassay, cpm); format: cell-based, hepatitis B virus; settings: for HBsAg IC50: first batch
Procedure: as §1, §2, §3, §4

[5] = 2.2.15 cells, 8 days incubation, TC0 concentration and dilutions
[6] = Arginase 1.25 IU/ml, batch 2, day 8
[7] = Arginase 1.25 IU/ml, two batches average line, day 8
[8] = Arginase 2.5 IU/ml, batch 1, day 8
[9] = Arginase 2.5 IU/ml, batch 2, day 8
[10] = Arginase 2.5 IU/ml, two batches average, day 8
[11] = Arginase 5 IU/ml, batch 1, day 8
[12] = Arginase 5 IU/ml, batch 2, day 8
[13] = Arginase 5 IU/ml, two batches average, day 8
[14] = Arginase 10 IU/ml, batch 1, day 8
[15] = Arginase 10 IU/ml, batch 2, day 8
[16] = Arginase 10 IU/ml, two batches average, day 8
[17] = Arginase 20 IU/ml, batch 1, day 8
[18] = Arginase 20 IU/ml, two batches average, day 8
[19] = Arginase 20 IU/ml, two batches average, day 8, listed as pegylated recombinant arginase

B1: Arginase: Pegylated recombinant human arginase (BCT-100); human arginase I with N-terminal six-histidine tag, SEQ ID NO: 3 (protein, listed as Homo sapiens)
chain: MHHHHHHMSAKSRTIGIIGAPFSKGQPRGGVEEGPTVLRKAGLLEKLKEQECDVKDYGDLPFADIPNDSPFQIVKNPRSVGKASEQLAGKVAQVKKNGRISLVLGGDHSLAIGSISGHARVHPDLGVIWVDAHTDINTPLTTTSGNLHGQPVSFLLKELKGKIPDVPGFSWVTPCISAKDIVYIGLRDVDPGEHYILKTLGIKYFSMTEVDRLGIGKVMEETLSYLLGRKKRPIHLSFDVDGLDPSFTPATGTPVVGGLTYREGLYITEEIYKTGLLSGLDIMEVNPSLGKTPEEVTRTVNTAVAITLACFGLAREGNHKPIDYLNPPK
modifications: PEGylated
- Suppression of HBeAg secretion (result in words) [1, 5]: significantly inhibits
- HBeAg (CPM) % suppression [1, 6]: 37.3426%
- HBeAg (CPM) % suppression [1, 7]: 37.34%
- HBeAg (CPM) % suppression [1, 8]: 61.8387%
- HBeAg (CPM) % suppression [1, 9]: 41.8149%
- HBeAg (CPM) % suppression [1, 10]: 51.83±14.16%
- HBeAg (CPM) % suppression [1, 11]: 68.3484%
- HBeAg (CPM) % suppression [1, 12]: 39.5618%
- HBeAg (CPM) % suppression [1, 13]: 53.96±20.36%
- HBeAg (CPM) % suppression [1, 14]: 73.0985%
- HBeAg (CPM) % suppression [1, 15]: 48.3596%
- HBeAg (CPM) % suppression [1, 16]: 60.73±17.49%
- HBeAg (CPM) % suppression [1, 17]: 74.9808%
- HBeAg (CPM) % suppression ([1]; Arginase 20 IU/ml, batch 2, day 8): 62.4033%
- HBeAg (CPM) % suppression [1, 18]: 68.69±8.89%
- HBeAg (CPM) % suppression [1, 19]: 68.69±8.89%
- HBeAg IC50 ([1]; batch 1, day 8): 6.69 IU/ml
- HBeAg IC50 ([1]; batch 2, day 8): 6.05 IU/ml
- HBeAg IC50 ([1]; two batches average, day 8): 6.37 ± 0.45 IU/ml and 6.37 IU/ml
- HBeAg IC50 ([1]; two batches average, day 8, listed as pegylated recombinant arginase): 6.37±0.45 IU/ml
- % suppression of HBV-DNA in cell culture supernatant ([2]; Arginase 1.25 μg/ml (unit as headed), batch 2, day 8): 15.7769%
- HBV-DNA in cell culture supernatant, Original Solution (IOD) ([2]; Arginase 1.25 μg/ml (unit as headed), batch 2, day 8, control 4651.67): 3917.78 IOD
- % suppression of HBV-DNA in cell culture supernatant ([2]; Arginase 2.5 μg/ml (unit as headed), batch 1, day 8): 24.9152%
- HBV-DNA in cell culture supernatant, Original Solution (IOD) ([2]; Arginase 2.5 μg/ml (unit as headed), batch 1, day 8, control 2375.1): 1783.34 IOD
- % suppression of HBV-DNA in cell culture supernatant ([2]; Arginase 2.5 μg/ml (unit as headed), batch 2, day 8): 11.466%
- HBV-DNA in cell culture supernatant, Original Solution (IOD) ([2]; Arginase 2.5 μg/ml (unit as headed), batch 2, day 8, control 4651.67): 4118.31 IOD
- % suppression of HBV-DNA in cell culture supernatant ([2]; Arginase 5 μg/ml (unit as headed), batch 1, day 8): 11.9877%
- HBV-DNA in cell culture supernatant, Original Solution (IOD) ([2]; Arginase 5 μg/ml (unit as headed), batch 1, day 8, control 2375.1): 2090.38 IOD
- % suppression of HBV-DNA in cell culture supernatant ([2]; Arginase 5 μg/ml (unit as headed), batch 2, day 8): 43.8243%
- HBV-DNA in cell culture supernatant, Original Solution (IOD) ([2]; Arginase 5 μg/ml (unit as headed), batch 2, day 8, control 4651.67): 2613.11 IOD
- % suppression of HBV-DNA in cell culture supernatant ([2]; Arginase 10 μg/ml (unit as headed), batch 1, day 8): 29.2409%
- HBV-DNA in cell culture supernatant, Original Solution (IOD) ([2]; Arginase 10 μg/ml (unit as headed), batch 1, day 8, control 2375.1): 1680.6 IOD
- % suppression of HBV-DNA in cell culture supernatant ([2]; Arginase 10 μg/ml (unit as headed), batch 2, day 8): 38.0549%
- HBV-DNA in cell culture supernatant, Original Solution (IOD) ([2]; Arginase 10 μg/ml (unit as headed), batch 2, day 8, control 4651.67): 2881.48 IOD
- % suppression of HBV-DNA in cell culture supernatant ([2]; Arginase 20 μg/ml (unit as headed), batch 1, day 8): 30.8113%
- HBV-DNA in cell culture supernatant, Original Solution (IOD) ([2]; Arginase 20 μg/ml (unit as headed), batch 1, day 8, control 2375.1): 1643.3 IOD
- % suppression of HBV-DNA in cell culture supernatant ([2]; Arginase 20 μg/ml (unit as headed), batch 2, day 8): 47.7577%
- HBV-DNA in cell culture supernatant, Original Solution (IOD) ([2]; Arginase 20 μg/ml (unit as headed), batch 2, day 8, control 4651.67): 2430.14 IOD
- IC50, HBV-DNA dot blot in supernatant ([2]; batch 1, 8 days of incubation): 16.04 IU/ml
- IC50, HBV-DNA dot blot in supernatant ([2]; batch 2, 8 days of incubation): 10.31 IU/ml
- IC50, HBV-DNA dot blot in supernatant ([2]; two batches average, 8 days of incubation): 13.18 IU/ml
- IC50, HBV-DNA dot blot in supernatant ([2]; two batches average, 8 days of incubation, listed as arginase): 13.18±4.05 IU/ml
- IC50, HBV-DNA dot blot in supernatant ([2]; two batches average, 8 days of incubation, listed as pegylated recombinant arginase): 13.18±0.45 IU/ml
- TC50 [3]: 40 IU/ml
- TC0 ([3]; listed as pegylated recombinant arginase): 20±0 IU/ml
- Suppression of HBsAg secretion (result in words) [4, 5]: significantly inhibits
- HBsAg (CPM) % suppression [4, 6]: 4.463%
- HBsAg (CPM) % suppression [4, 7]: 4.46%
- HBsAg (CPM) % suppression [4, 8]: 37.18% and 37.1787%
- HBsAg (CPM) % suppression [4, 9]: 2.6073%
- HBsAg (CPM) % suppression [4, 10]: 19.92 ± 24.40%
- HBsAg (CPM) % suppression [4, 11]: 42.29% and 42.2871%
- HBsAg (CPM) % suppression [4, 12]: 1.4739%
- HBsAg (CPM) % suppression [4, 13]: 21.88 ± 28.86%
- HBsAg (CPM) % suppression [4, 14]: 47.97% and 47.9651%
- HBsAg (CPM) % suppression [4, 15]: 6.0761%
- HBsAg (CPM) % suppression [4, 16]: 27.02 ± 29.62%
- HBsAg (CPM) % suppression [4, 17]: 49.16% and 49.1558%
- HBsAg (CPM) % suppression [4, 18]: 29.81±27.35%
- HBsAg (CPM) % suppression [4, 19]: 29.81±27.35%
- HBsAg IC50 ([4]; day 8): (1)10.72 IU/ml
- HBsAg IC50 ([4]; day 8, listed as pegylated recombinant arginase): 10.72 IU/ml
